{"source": "patent US20120171115A1", "about": "(AVIPEP, published 2012)", "binders": {"B1": {"name": "AVP07-17 anti-Her2 diabody (other)", "chain": "QVQLVQSGAEVKKPGESLKISCKGSGYSFTSYWIAWVRQMPGKGLEYMGLIYPGDSDTKYSPSFQGQVTISVDKSVSTAYLQWSSLKPSDSAVYFCARHDVGYCSSSNCAKWPEYFQHWGQGTLVTVSSGGGGSQSVLTQPPSVSAAPGQKVTISCSGSSSNIGNNYVSWYQQLPGTVPKLLIYGHTNRPAGVPDRFSGSKSGTSASLAISGFRSEDEADYYCAAWDDSLSGWVFGGGTKLTVLGAAAEQKLISEEDLNGAAHHHHHH", "notes": "Diabody: homodimer of VH-Gly4Ser-VL chains from a human anti-HER2 mAb, with a C-terminal His6 tag from cloning; also called AVP07-17 Avibody"}}, "biological_target": "recombinant HER2 ectodomain (human, UniProt P04626 23-652)", "assay": "column shift assay: gel filtration monitored at A280, diabody pre-incubated with recombinant HER2 ectodomain", "description": "Binding activity to soluble antigen was established by a column shift. […] In the column shift assay, at least two times mole excess of soluble antigen to diabody was incubated for 1 hr at ambient temperature. Binding activity was determined by comparing the resulting diabody/antigen complex peak to the free diabody peak. The elution profiles of the diabody or diabody/antigen complex was monitored either directly though absorbance at 280 nm or, in cases where the diabody was Europium labelled, elution fractions were measured in a Victor time-resolved fluorometer using the Europium mode in the Victor multilabel program wizard."}
{"binder": "B1", "values": [{"measurement": "binding result", "value": "binds"}]}
